Laboratory results: patent publication US20170267766A1 (PIERRE FABRE MEDICAMENT, published 2017)
Substitutions are numbered along the chain they refer to. Each block holds one binder with its values, some of them ahead of it.

Columns and labels:
[1] = target: T1, monkey IGF-1R (on COS-7 cells) (African green monkey); assay: FACS titration, Cos-7
T1 construct: whole, on cells
Method: (§1) The binding properties of the humanized variants were evaluated by FACS analyses on the human MCF-7 breast adenocarcinoma cell line and the monkey cell line Cos-7 using increasing antibody concentrations. For that purpose, cells (1×10⁶ cells/ml) were incubated with anti-IGF-1R humanized antibodies for 20 min. at 4° C. in FACS buffer (PBS, 0.1% BSA, 0.01% NaN3). They were then washed 3 times and incubated with the appropriate secondary antibody coupled with Alexa 488 for 20 additional minutes at 4° C. in the dark before being washed 3 times in FACS buffer. The binding of anti-IGF-1R antibodies was immediately performed on viable cells which were identified using propidium iodide (that stains dead cells). The EC₅₀ of binding expressed in molarity (M) was calculated using a nonlinear regression analysis (GraphPad Prims 4.0).

[2] = target: T2, human IGF-1R (native, on cells) (human, UniProt P08069 31-1367); assay: FACS titration, MCF-7
T2 construct: also called hIGF-1R; native IGF-1R on MCF-7 cells
Method: as §1

[3] = target: T2, human IGF-1R (native, on cells); assay: cell-based or functional assay
[4] = target: T2, human IGF-1R (native, on cells); assay: FACS titration, MCF-7; remark: listed apart in the source
Method: The binding properties of a series of anti-IGF-1R antibodies were evaluated by FACS analyses on the human MCF-7 breast adenocarcinoma cell line (ATCC#HTB-22) using increasing antibody concentrations. For that purpose, cells (1×10⁶ cells/ml) were incubated with anti-IGF-1R antibodies for 20 min. at 4° C. in FACS buffer (PBS, 0.1% BSA, 0.01% NaN₃). They were then washed 3 times and incubated with the appropriate secondary antibody coupled with Alexa 488 for 20 additional minutes at 4° C. in the dark before being washed 3 times in FACS buffer. The binding of anti-IGF-1R antibodies was immediately performed on viable cells which were identified using propidium iodide (that stains dead cells). The maximum of signal intensity obtained with each antibody was designed as Bₘₐₓ and expressed in mean of fluorescence intensity (MFI). The EC₅₀ of binding expressed in molarity (M) was calculated using a nonlinear regression analysis (GraphPad Prims 4.0).

[5] = target: T2, human IGF-1R (native, on cells); assay: cell-based or functional assay; remark: listed apart in the source
[6] = target: T1, monkey IGF-1R (on COS-7 cells); assay: cell-based or functional assay
[7] = target: T2, human IGF-1R (native, on cells); assay: FACS titration, hIGF-1R transfected cells
Method: Briefly, increasing concentrations of chimeric mAbs were incubated with cells for 20 min at 4° C. in FACS buffer (PBS, 0.1% BSA, 0.01% NaN₃). Cells were then washed 3 times and incubated with the appropriate secondary antibody coupled with Alexa 488 before being incubated for 20 additional minutes at 4° C. in the dark and then washed 3 times in FACS buffer. The binding of anti-IGF-1R antibodies was immediately performed on viable cells which were identified using propidium iodide (that stains dead cells). The binding EC₅₀ expressed in molarity (M) was calculated using a nonlinear regression analysis (GraphPad Prims 4.0).

EC50 [1]: 730 pM | EC50 [2]: 460 pM
B1: hz208F2 H070/L018 (antibody, human IgG1, kappa, V domains shown)
VH: QVQLVQSGAEVKKPGASVKVSCKASGYTFTSYYMHWVRQAPGQGLEWMGWIWPGDGSTKYAQKFQGRVTMTRDTSTSTVYMELSSLRSEDTAVYYCASPMITPNYAMDYWGQGTLVTVSS
VL: DIQMTQSPSSLSASVGDRVTITCRASQDISKYLNWYQQKPGKAPKLLIYYTSRLQSGVPSRFSGRGSGTDYSLTISSLQPEDFATYFCQQGSTLPYTFGGGTKVEIKR
notes: humanized 208F2 variant

EC50 [1]: 990 pM | EC50 [2]: 840 pM
B2: hz208F2 H052/L018 (antibody, human IgG1, kappa, V domains shown)
VH: B1 VH with Y95F
VL: B1 VL
notes: humanized 208F2 variant

EC50 [1]: 1100 pM | EC50 [2]: 550 pM
B3: hz208F2 H071/L018 (antibody, human IgG1, kappa, V domains shown)
VH: B1 VH with S77N
VL: B1 VL
notes: humanized 208F2 variant

EC50 [1]: 740 pM | EC50 [2]: 490 pM
B4: hz208F2 H037/L018 (antibody, human IgG1, kappa, V domains shown)
VH: B1 VH with T74K, T76S, Y95F
VL: B1 VL
notes: humanized 208F2 variant

EC50 [1]: 820 pM | EC50 [2]: 480 pM
B5: hz208F2 H037/L021 (antibody, human IgG1, kappa, V domains shown)
VH: B1 VH with T74K, T76S, Y95F
VL: B1 VL with Q55H, Y71F
notes: humanized 208F2 variant

EC50 [1]: 1100 pM | EC50 [2]: 650 pM
B6: hz208F2 H076/L018 (antibody, human IgG1, kappa, V domains shown)
VH: B1 VH with M34I
VL: B1 VL
notes: humanized 208F2 variant

EC50 [1]: 1100 pM
B7: hz208F2 H076/L021 (antibody, human IgG1, kappa, V domains shown)
VH: B1 VH with M34I
VL: B1 VL with Q55H, Y71F
notes: humanized 208F2 variant

EC50 [1]: 830 pM | EC50 [2]: 580 pM
B8: hz208F2 H057/L018 (antibody, human IgG1, kappa, V domains shown)
VH: B1 VH with M34I, T74K, S77N
VL: B1 VL
notes: humanized 208F2 variant

EC50 [1]: 720 pM | EC50 [2]: 570 pM
B9: hz208F2 H051/L018 (antibody, human IgG1, kappa, V domains shown)
VH: B1 VH with T76S, S77N, Y95F
VL: B1 VL
notes: humanized 208F2 variant

EC50 [1]: 920 pM | EC50 [2]: 770 pM
B10: hz208F2 H047/L018 (antibody, human IgG1, kappa, V domains shown)
VH: B1 VH with M34I, T76S, S77N
VL: B1 VL
notes: humanized 208F2 variant

EC50 [1]: 690 pM | EC50 [2]: 490 pM
B11: hz208F2 H049/L018 (antibody, human IgG1, kappa, V domains shown)
VH: B1 VH with T74K, T76S
VL: B1 VL
notes: humanized 208F2 variant

EC50 [1]: 1200 pM | EC50 [2]: 1100 pM
B12: hz208F2 H068/L018 (antibody, human IgG1, kappa, V domains shown)
VH: B1 VH with S77N, Y95F
VL: B1 VL
notes: humanized 208F2 variant

EC50 [1]: 1200 pM | EC50 [2]: 570 pM
B13: hz208F2 H052/L021 (antibody, human IgG1, kappa, V domains shown)
VH: B1 VH with Y95F
VL: B1 VL with Q55H, Y71F
notes: humanized 208F2 variant

EC50 [1]: 850 pM
B14: hz208F2 H049/L021 (antibody, human IgG1, kappa, V domains shown)
VH: B1 VH with T74K, T76S
VL: B1 VL with Q55H, Y71F
notes: humanized 208F2 variant

EC50 [1]: 1100 pM | EC50 [2]: 770 pM
B15: hz208F2 H077/L018 (antibody, human IgG1, kappa, V domains shown)
VH: B1 VH with M34I, Y95F
VL: B1 VL
notes: humanized 208F2 variant

hIGF-1R phosphorylation, % of that induced by IGF-1 (MCF-7, Ab 10 µg/ml) [3]: < 20% | Bmax [4]: 991 MFI | EC50 [4]: 670 pM | % Internalization (MCF-7, 10 µg/ml, 4 h) [5]: 80% | ΔMFI [5]: 322 MFI | % internalisation [6]: 75% | ΔMFI [6]: 98 MFI | Bmax [7]: 2510 MFI | EC50 [7]: 440 pM
B16: c212A11 (antibody, human IgG1, kappa, V domains shown)
VH: QVQLQQSGPELVKPGASVKMSCKASGYTFTSYYIHWVKQRPGQGLEWIGWIWPGDGSTKYNEKFKGKTTLTADKSSSTAYMFLSSLTSEDSAVYFCASPMITPNYAMDYWGQGASVTVSS
VL: DIQMTQTTSSLSASLGDRVTISCRASQDINKYLNWYQQQPDGTVKLLIYYTSRLHSGVPSRFSGRGSGTDYSLTISNLEQEDIATYFCQQGSTLPYTFGGGTKLEIKR
notes: group G2; also called chimeric 212A11

hIGF-1R phosphorylation, % of that induced by IGF-1 (MCF-7, Ab 10 µg/ml) [3]: < 20% | Bmax [4]: 1070 MFI | EC50 [4]: 500 pM | % Internalization (MCF-7, 10 µg/ml, 4 h) [5]: 87% | ΔMFI [5]: 403 MFI | % internalisation [6]: 72% | ΔMFI [6]: 98 MFI | Bmax [7]: 2090 MFI | EC50 [7]: 270 pM
B17: c214F8 (antibody, human IgG1, kappa)
heavy: not shown
light: DIQMTQTTSSLSASLGDRVTFSCRASQDISKYLNWYQQQPDGTIKLLIYYTSRLHSGVPSRFSGRGSGTDYSLTITNLEQEDIATYFCQQGSALPYTFGGGTKLEIKRTVAAPSVFIFPPSDEQLKSGTASVVCLLNNFYPREAKVQWKVDNALQSGNSQESVTEQDSKDSTYSLSSTLTLSKADYEKHKVYACEVTHQGLSSPVTKSFNRGEC
notes: group G2; also called chimeric 214F8

hIGF-1R phosphorylation, % of that induced by IGF-1 (MCF-7, Ab 10 µg/ml) [3]: < 20% | Bmax [4]: 1100 MFI | EC50 [4]: 440 pM | % Internalization (MCF-7, 10 µg/ml, 4 h) [5]: 85% | ΔMFI [5]: 369 MFI | % internalisation [6]: 73% | ΔMFI [6]: 101 MFI | Bmax [7]: 2030 MFI | EC50 [7]: 330 pM
B18: c213B10 (antibody, human IgG1, kappa)
heavy: not shown
light: B17 light with F21I
notes: group G2; also called chimeric 213B10

hIGF-1R phosphorylation, % of that induced by IGF-1 (MCF-7, Ab 10 µg/ml) [3]: < 20% | Bmax [4]: 993 MFI | EC50 [4]: 470 pM | % Internalization (MCF-7, 10 µg/ml, 4 h) [5]: 80% | ΔMFI [5]: 353 MFI | % internalisation [6]: 74% | ΔMFI [6]: 102 MFI | Bmax [7]: 2520 MFI | EC50 [7]: 550 pM
B19: c219D6 (antibody, human IgG1, kappa, V domains shown)
VH: B16 VH with A16D, T28S, Y33F, A72T, S84N
VL: B16 VL with N30S
notes: group G2; also called chimeric 219D6
